Data from article PMC4598299.

Target: hThumb WT (hTERT thumb/CTE domain) (human, UniProt O14746 943-1132)
Assay: fluorescence polarization

Sequence of hThumb WT (hTERT thumb/CTE domain) (O14746 943-1132): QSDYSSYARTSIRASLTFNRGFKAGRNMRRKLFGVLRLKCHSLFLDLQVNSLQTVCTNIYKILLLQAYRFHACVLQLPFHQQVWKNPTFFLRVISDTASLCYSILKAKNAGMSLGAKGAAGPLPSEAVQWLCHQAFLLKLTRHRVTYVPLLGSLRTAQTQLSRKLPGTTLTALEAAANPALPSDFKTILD

B1: hTER CR4/5 (structured_RNA)
RNA: CCCGCCUGGAGGCCGCGGUCCGCCGCGAAGAGUUGGGCUCUGUCAGCCGCGGG
With B1 the Kd was about 400 nM.
